Where a chain is given by its changes, count along the chain named.
B1: DGL894 (bispecific antibody)
chain 1: not shown
chain 2: EVQLLESGGGLVQPGGSLRLSCAASGFTFSDYWMTWIRQAPGKGLEWVSSISGGSTYYADSRKGRFTISRDNSENTLYLQMNSLRAEDTAVYYCARDFGVAGWFGQYGMDVWGQGTLVTVSSGGGGSGGGGSGGGGSQSVLTQPPSASGTPGQRVTISCTGSSSNIGAGYDVHWYQQLPGTAPKLLIYRSNQRPSGVPDRFSGSKSGTSASLAISGLRSEDEADYYCSSYAGNYNLVFGGGTKLTVLDKTHTCPPCPAPEAAGAPSVFLFPPKPKDTLMISRTPEVTCVVVDVSHEDPEVKFNWYVDGVEVHNAKTKPREEQYNSTYRVVSVLTVLHQDWLNGKEYKCKVSNKALPAPIEKTISKAKGQPREPQVCTLPPSRDELTKNQVSLSCAVKGFYPSDIAVEWESNGQPENNYKTTPPVLDSDGSFFLVSKLTVDKSRWQQGNVFSCSVMHEALHNHYTQKSLSLSPGWSHPQFEK
B2: DGL914 (bispecific antibody)
chain 1: not shown
chain 2: B1 chain 2 with W33Y, T35N, R62V, Q106Y
B3: DGL911 (bispecific antibody)
chain 1: not shown
chain 2: B1 chain 2 with S55T, A101S
B4: DGL904 (bispecific antibody)
chain 1: not shown
chain 2: B1 chain 2 with S55T, A101S
B5: DGL915 (bispecific antibody)
chain 1: not shown
chain 2: B1 chain 2 with W33Y, A101S
B6: DGL903 (bispecific antibody)
chain 1: not shown
chain 2: B1 chain 2 with W33Y, S55T
B7: DGL909 (bispecific antibody)
chain 1: not shown
chain 2: B1 chain 2
B8: DGL897 (bispecific antibody)
chain 1: not shown
chain 2: B1 chain 2 with W33Y, A101S
B9: DGL900 (bispecific antibody)
chain 1: not shown
chain 2: B1 chain 2 with S55T, A101S
B10: DGL918 (bispecific antibody)
chain 1: not shown
chain 2: B1 chain 2 with S55T, A101S
B11: DGL907 (bispecific antibody)
chain 1: not shown
chain 2: B1 chain 2 with W33Y, T35N, R62V, Q106Y
B12: DGL913 (bispecific antibody)
chain 1: not shown
chain 2: B1 chain 2 with Y32S, W33Y, T35S, R62V, W103Y
B13: DGL910 (bispecific antibody)
chain 1: not shown
chain 2: B1 chain 2 with W33Y, S55T
B14: DGL899 (bispecific antibody)
chain 1: not shown
chain 2: B1 chain 2 with W33Y, S55T
B15: DGL908 (bispecific antibody)
chain 1: not shown
chain 2: B1 chain 2 with W33Y, A101S
B16: DGL917 (bispecific antibody)
chain 1: not shown
chain 2: B1 chain 2 with W33Y, S55T
B17: DGL912 (bispecific antibody)
chain 1: not shown
chain 2: B1 chain 2 with W33Y, T35N, R62V, Y107F
B18: DGL906 (bispecific antibody)
chain 1: not shown
chain 2: B1 chain 2 with Y32S, W33Y, T35S, R62V, W103Y
B19: DGL905 (bispecific antibody)
chain 1: not shown
chain 2: B1 chain 2 with W33Y, T35N, R62V, Y107F
B20: DGL898 (bispecific antibody)
chain 1: not shown
chain 2: B1 chain 2
B21: DGL896 (bispecific antibody)
chain 1: not shown
chain 2: B1 chain 2 with S55T, A101S
B22: DGL902 (bispecific antibody)
chain 1: not shown
chain 2: B1 chain 2
B23: DGL901 (bispecific antibody)
chain 1: not shown
chain 2: B1 chain 2 with W33Y, A101S
B24: DGL895 (bispecific antibody)
chain 1: not shown
chain 2: B1 chain 2 with W33Y, S55T
B25: DGL916 (bispecific antibody)
chain 1: not shown
chain 2: B1 chain 2

target: ALK-1/BMPR-2 receptor pair of the PathHunter U2Os dimerization cells (DiscoverX 93-0962C3) (UniProt P37023 22-503; Q13873 27-1038); assay: cell-based or functional assay

% Emax BMP9 [%] | Emax (RLU) | Binder
14 | 383000 | B1
20 | 557000 | B2
19 | 521000 | B3
17 | 475000 | B4
5 | 124000 | B5
34 | 918000 | B6
24 | 663000 | B7
26 | 701000 | B8
12 | 333000 | B9
46 | 1.24e+06 | B10
12 | 321000 | B11
0 | 8420 | B12
49 | 1.33e+06 | B13
30 | 812000 | B14
45 | 1.23e+06 | B15
17 | 469000 | B16
33 | 910000 | B17
-2 | -41100 | B18
36 | 972000 | B19
19 | 509000 | B20
10 | 282000 | B21
19 | 529000 | B22
29 | 800000 | B23
26 | 715000 | B24
41 | 1.11e+06 | B25

— US20250002588A1 (DIAGONAL THERAPEUTICS, published 2025)
